The values below come from patent publication US20240417475A1 (AFFIMED, published 2024).

Assay [1] addresses T1, human FOLR1 endogenously expressed on tumor cell lines (human, UniProt P15328 25-234).
T1 construct: whole, on cells; also called FOLR1-positive tumor cell lines; FOLR1+ target cells
As to the kind of experiment: flow cytometry on IGROV-1 cells, 37 C, one-site fit of MFI, mean. Here is the method:
Cells were collected and centrifuged at 400×g, 5 min, 4° C. Cell pellets were resuspended in FACS buffer (PBS (Invitrogen, cat.: 392-0434) containing 2% h.i. FCS (Invitrogen, cat.: 10500-064), and 0.1% sodium azide (Sigma, cat.: S8032)) at 1-5×10⁶ cells/mL. 100 μL/well of the cell suspension were transferred into U-shaped, 96-well micro plates (0.1-0.5×10⁶ cells per well), cells were pelleted at 400×g, 5 min, 4° C., and resuspended in 100 μL/well of serial dilutions of the indicated antibodies in FACS buffer. After 40-50 min incubation at 37° C., cells were washed 3-times with ice-cold FACS buffer. […] After the final incubation step, cells were washed 2-times with ice-cold FACS buffer, and the cell pellet was resuspended in 100 μL FACS buffer. Fluorescence intensities of >1×10⁴ viable cells were analyzed by flow cytometry and the median fluorescence intensity (MFI) was determined for each sample.
Equilibrium dissociation constants (KD) of antibody binding, mean and standard deviation (SD) were calculated by plotting MFI values and fitting a non-linear regression model for one-site binding to hyperbolic dose-response curves using GraphPad Prism for Windows (v9; GraphPad Software; La Jolla California USA).
Specific antibody binding capacity (SABC) as a marker for FOLR1 expression level on cells was determined on all tumor cell lines using QIFIKIT.

Assay [2] concerns the target T2, cynomolgus CD16 expressed on CHO cells (cAg_36) (cynomolgus, UniProt Q8SPW2 17-254).
T2 construct: whole, on cells; also called cyCD16
The experiment in a line: flow cytometry on cyCD16 CHO cells (cAg_36), one-site fit of MFI, mean. The method, then: (§1) After washing in FACS buffer, cells were incubated in 50 μL FACS buffer without antibodies or with titrated antibodies starting at a concentration of 1000 nM followed by elven 3-fold serial dilutions for 40-50 min on ice in the dark. […] After washing, binding was measured by flow cytometry and mean fluorescence intensities (MFI) of cell samples were calculated and corrected for background staining using control cells stained with secondary antibodies only.
(§2) Equilibrium dissociation constants (KD) of antibody binding were calculated by plotting MFI values and fitting a non-linear regression model for one-site binding to hyperbolic dose-response curves using GraphPad Prism.

For assay [3], the target named is T2, cynomolgus CD16 expressed on CHO cells …. The experiment in a line: flow cytometry on cyCD16 CHO cells (cAg_36), one-site fit of MFI, Exp. 3. Here is the method: as §1, §2
For assay [4], the target named is CD16A endogenously expressed on primary human NK cells (human, UniProt P08637 17-254). The experiment in a line: flow cytometry on primary human NK cells, without IgG, range of 4 experiments. The method, then:
4° C., and resuspended in 50 μL/well of diluted antibody constructs. […] After 40-50 minutes' incubation at 37° C., cells were washed 3-times with ice-cold FACS buffer. […] After the final incubation step, cells were washed 2-times with ice-cold FACS buffer, and the cell pellet was resuspended in 50 μL FACS buffer. Fluorescence intensity of >1×10⁴ viable cells was analyzed by flow cytometry and the median fluorescence intensity (MFI) was determined for each sample.
as §2

The target of assay [5] is T3, cynomolgus FOLR1 expressed on CHO cells (cAg_126) (cynomolgus, UniProt A0A2K5U044 25-234).
T3 construct: whole, on cells; also called cyFOLR1
T3 sequence (A0A2K5U044 entry or part of it): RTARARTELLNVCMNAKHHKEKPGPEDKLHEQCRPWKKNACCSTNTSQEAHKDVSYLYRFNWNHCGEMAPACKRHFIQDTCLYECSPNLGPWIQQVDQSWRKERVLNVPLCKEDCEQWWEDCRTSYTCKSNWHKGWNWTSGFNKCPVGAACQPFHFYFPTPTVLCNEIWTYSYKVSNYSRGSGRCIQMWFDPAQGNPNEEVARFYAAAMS
As to the kind of experiment: flow cytometry on cyFOLR1 CHO cells (cAg_126), one-site fit of MFI, Exp. 2. Here is the method:
(§3) To analyze binding of different antibody constructs to CHO cells transfected with human FOLR1 (cAg_125) and cynomolgus FOLR1 (cAg_126), 1-5×10⁵ were resuspended in 100 μL FACS buffer (PBS (BioWest, cat.: L0615-500) containing 2% heat-inactivated FCS (Invitrogen, cat.: 10500-064), and 0.1% sodium azide (Sigma, cat.: S8032_100G)) in round-bottom 96-well microtiter plates. After washing in FACS buffer, cells were incubated in 50 μL FACS buffer without antibodies or with titrated antibodies starting at a concentration of 1000 nM followed by eleven 3-fold serial dilutions for 40-50 min on ice in the dark. […] After washing, binding was measured by flow cytometry and mean fluorescence intensities (MFI) of cell samples were calculated and corrected for background staining using control cells stained with secondary antibodies only.
(§4) Binding of antibody constructs to huFOLR1-as well as cyFOLR1-transfected CHO cells was measured by flow cytometry. Equilibrium dissociation constants (KD) of antibody binding were calculated by plotting MFI values and fitting a non-linear regression model for one-site binding to hyperbolic dose-response curves using GraphPad Prism.

The target of assay [6] is T4, human FOLR1 expressed on CHO cells (cAg_125) (human, UniProt P15328 25-234).
T4 construct: whole, on cells; also called huFOLR1
T4 sequence (P15328 25-234): as the sequence (A0A2K5U044 entry or part of it) above, with T2I, R4W, K37R, P146A, Y171H counted along it
The experiment in a line: flow cytometry on huFOLR1 CHO cells (cAg_125), one-site fit of MFI, Exp. 1. The method, then: as §3, §4

Assay [7] deals with T4, human FOLR1 expressed on CHO cells …. The experiment in a line: flow cytometry on huFOLR1 CHO cells (cAg_125), one-site fit of MFI, Exp. 2. Here is the method:
as §3, §4

The target of assay [8] is T5, human CD16A (158V) expressed on CHO cells (cAg_35) (human, UniProt P08637 17-254).
T5 construct: also called huCD16A (158V)
T5 sequence (P08637 17-254 F176V limits assumed): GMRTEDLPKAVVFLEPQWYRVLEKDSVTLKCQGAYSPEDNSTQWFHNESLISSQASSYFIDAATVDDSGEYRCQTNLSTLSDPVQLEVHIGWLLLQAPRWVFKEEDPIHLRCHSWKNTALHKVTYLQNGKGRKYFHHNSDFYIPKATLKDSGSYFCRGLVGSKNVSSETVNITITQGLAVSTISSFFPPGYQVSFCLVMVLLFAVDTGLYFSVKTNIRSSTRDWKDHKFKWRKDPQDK
As to the kind of experiment: flow cytometry on huCD16A (158V) CHO cells (cAg_35), one-site fit of MFI, mean. Here is the method: as §1, §2

The target in assay [9] is T4, human FOLR1 expressed on CHO cells …. As to the kind of experiment: flow cytometry on huFOLR1-transfected CHO cells (cAg_125), on ice, FITC goat anti-human IgG detection. Here is the method:
as §3

In assay [10] the target is T5, human CD16A (158V) expressed on CHO …. As to the kind of experiment: flow cytometry on huCD16A (158V)-transfected CHO cells (printed sAg_35), on ice, FITC goat anti-human IgG detection. The method, then:
as §1

T2 sequence (Q8SPW2 17-254): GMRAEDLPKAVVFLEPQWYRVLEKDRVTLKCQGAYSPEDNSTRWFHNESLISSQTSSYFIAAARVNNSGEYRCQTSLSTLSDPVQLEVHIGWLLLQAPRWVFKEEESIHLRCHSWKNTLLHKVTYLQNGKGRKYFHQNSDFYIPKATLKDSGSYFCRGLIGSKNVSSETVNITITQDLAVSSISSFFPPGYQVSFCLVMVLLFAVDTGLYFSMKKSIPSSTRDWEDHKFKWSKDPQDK
Sequence of CD16A endogenously expressed on primary human NK cells (P08637 17-254 limits assumed): as the sequence (P08637 17-254 F176V limits assumed) above, with V160F counted along it
T1 sequence (P15328 25-234): as the sequence (A0A2K5U044 entry or part of it) above, with T2I, R4W, K37R, P146A, Y171H counted along it

B1: scFv-IgAb_387 (FOLR1_1×CD16a3) (bispecific antibody)
heavy: EVQLVESGGGVVQPGRSLRLSCSASGFTFSGYGLSWVRQAPGKGLEWVAMISSGGSYTYYADSVKGRFAISRDNAKNTLFLQMDSLRPEDTGVYFCARHGDDPAWFAYWGQGTPVTVSSASTKGPSVFPLAPSSKSTSGGTAALGCLVKDYFPEPVTVSWNSGALTSGVHTFPAVLQSSGLYSLSSVVTVPSSSLGTQTYICNVNHKPSNTKVDKKVEPKSCDKTHTCPPCPAPEFEGGPSVFLFPPKPKDTLMISRTPEVTCVVVAVSHEDPEVKFNWYVDGVEVHNAKTKPREEQYNSTYRVVSVLTVLHQDWLNGKEYKCKVSNKALPAPIEKTISKAKGQPREPQVYTLPPSREEMTKNQVSLTCLVKGFYPSDIAVEWESNGQPENNYKTTPPVLDSDGSFFLYSKLTVDKSRWQQGNVFSCSVMHEALHNHYTQKSLSLSPGGGGGSGGGGSGGGGSGGGGSGGGGSGGGGSSYELTQPLSVSVALGQTARITCGGNNIGSKSVHWYQQKPGQAPVLVIYQDKKRPSGIPERFSGSNSGNTATLTISRAQAGDEADYYCQVWDDYIVLFGCGTKLTVLGGSGGSGGSGGSGGSGGSGGSQVQLVQSGAEVKKPGASVKVSCKASGYTFTNYYMQWVRQAPGQCLEWMGIINPSGGVTSYAQKFQGRVTMTRDTSTSTVYMELSSLRSEDTAVYYCARGSAYYYDFADYWGQGTLVTVSSG
light: DIQLTQSPSSLSASVGDRVTITCSVSSSISSNNLHWYQQKPGKAPKPWIYGTSNLASGVPSRFSGSGSGTDYTFTISSLQPEDIATYYCQQWSSYPYMYTFGQGTKVEIKRTVAAPSVFIFPPSDEQLKSGTASVVCLLNNFYPREAKVQWKVDNALQSGNSQESVTEQDSKDSTYSLSSTLTLSKADYEKHKVYACEVTHQGLSSPVTKSFNRGEC
modifications: Chemically biotinylated (NHS-PEG4-biotin) in Example 22 only.
notes: Tetravalent bispecific scFv-IgAb; also called FOLR1×CD16A scFv-IgAb_387; FOLR1/CD16A scFv-IgAb_387; copies: 2 + 2
With B1, the Kd is 3.7 nM in [1]; 25.2 nM in assay [2]; 22.8 nM in assay [3]; 3.7 to 5.4 nM in [4]; 15.3 nM in [5]; 35.1 nM in [6]. Moreover, the Kd in assay [7] was determined as 31.6 nM; in assay [8] it was 30.8 nM. The “EC50 (read off the curve)” value in assay [9] is about 40 nM; in [10], about 50 nM.

B2: scFv-IgAb_381 (FOLR1_1×CD16a4) (bispecific antibody)
chain 1: EVQLVESGGGVVQPGRSLRLSCSASGFTFSGYGLSWVRQAPGKGLEWVAMISSGGSYTYYADSVKGRFAISRDNAKNTLFLQMDSLRPEDTGVYFCARHGDDPAWFAYWGQGTPVTVSSASTKGPSVFPLAPSSKSTSGGTAALGCLVKDYFPEPVTVSWNSGALTSGVHTFPAVLQSSGLYSLSSVVTVPSSSLGTQTYICNVNHKPSNTKVDKKVEPKSCDKTHTCPPCPAPEFEGGPSVFLFPPKPKDTLMISRTPEVTCVVVAVSHEDPEVKFNWYVDGVEVHNAKTKPREEQYNSTYRVVSVLTVLHQDWLNGKEYKCKVSNKALPAPIEKTISKAKGQPREPQVYTLPPSREEMTKNQVSLTCLVKGFYPSDIAVEWESNGQPENNYKTTPPVLDSDGSFFLYSKLTVDKSRWQQGNVFSCSVMHEALHNHYTQKSLSLSPGGGGGSGGGGSGGGGSGGGGSGGGGSGGGGSSYELTQPLSVSVALGQTARITCGGHNIGSKNVHWYQQKPGQAPVLVIYQDNKRPSGIPERFSGSNSGNTATLTISRAQAGDEADYYCQVWDNYNVLFGCGTKLTVLGGSGGSGGSGGSGGSGGSGGSQVQLVQSGAEVKKPGASVKVSCKASGYTFTSYYMHWVRQAPGQCLEWMGAIEPTYGSTSYAQKFQGRVTMTRDTSTSTVYMELSSLRSEDTAVYYCARGSAYYYDFADYWGQGTLVTVS
chain 2: DIQLTQSPSSLSASVGDRVTITCSVSSSISSNNLHWYQQKPGKAPKPWIYGTSNLASGVPSRFSGSGSGTDYTFTISSLQPEDIATYYCQQWSSYPYMYTFGQGTKVEIKRTVAAPSVFIFPPSDEQLKSGTASVVCLLNNFYPREAKVQWKVDNALQSGNSQESVTEQDSKDSTYSLSSTLTLSKADYEKHKVYACEVTHQGLSSPVTKSFNRGEC
notes: also called FOLR1×CD16A scFv-IgAb_381
Take B2: the Kd in [2] was found to be 32.8 nM; in assay [3], 28.2 nM; in assay [5], 11.8 nM; in [6], 20.3 nM; in [7] it was 24.4 nM; in assay [8] it was 43 nM. For the same molecule, the “EC50 (read off the curve)” value is about 30 nM in assay [9] and about 60 nM in assay [10].
